The nanobody polyreactivity screen of Harvey et al. (2022)

Test: yeast display, Sf9 membrane polyspecificity reagent, FACS + sequencing; frameworks hold sequencing errors
In short: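 A nanobody's polyreactivity label depends on the gate it was sorted from. Yeast display cells were stained with 10% biotinylated, detergent-solubilized Sf9 membrane reagent for 1 hour at 4 °C, enriched on streptavidin microbeads and sorted by FACS. The low and high (top ~1%) gates were set on anti-HA fluorescence for expression and streptavidin fluorescence for reagent binding.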

Sequence | polyreactivity (PSR sort gate)
QVQLVESGGGLVQAGGSLRLSCAASGRISSQYAMGWYRQAPGKERELVAAISTSGDRTYYADSVKGRFTISRDNAKNTVYLQMNSLKPEDTAVYYCAKDGPYTYGRDIYEYWGQGTQVTVSS | low polyreactivity
QVQLVESGGGLVQAGGSLRLSCAASGSTFQYYDMGWYRQAPGKERELVASITGSGDSTYYADSVKGRFTISRDNAKNTVYLQMNSLKPEDTAVYYCAAQNTWSGDYDYWGQGTQVTVSS | low polyreactivity
QVQLVESGGGLVQAGGSLRLSCAASGSIFVRNVMGWYRQPPGKERELVATIRYRGGSTYYADSVKGRFTISRDYAKNTVYLQMNSLKPEDTAVYYCNARYLWADEYYYWGQGTQVTVSS | low polyreactivity
QVQLVESGGGLVQAGGSLRLSCAASGRTFVYNAMVWYRQAPGKEREFVAAISWRGGSTFYADSVKGRFTISRDNAKNTVYLQMNSLKPEDTAVYYCAAEGWYYRYDYWGQGTQVTVSS | high polyreactivity
QVQLVESGGGLVQAGGSLRLSCAASGITLNRNAMGWYRQAPGKERELVARISRRGGTTYYADSVKGRFTISRDNAKNTVYLQMNSLKPEDTAVYYCNAGPYGGNPFDYWGQGTQVTVSS | high polyreactivity
QVQLVESGGGLVQAGGSLRLSCAASGRTLHYYAMGWYRQAPGKERELVARINWSGGSTYYADSVKGRFTISRDNAKNTVYLQMNSLKPEDTAVYYCARTSYYWSSFDYWGQGTQVTVSS | high polyreactivity
LVQLVESGGGLVQAGGSLRLSCAASGITLARNAMGWYRQAPGKEWELVAAITWSGGTTYYADSVKGRFTISRDNAKNTVYLQMNSLKPEDTAVYYCAASAKLHYYRTYRYNYWGQGTQVTVSS | high polyreactivity
QVQLVESGGGLVQAGGSLRLSCAASGRIFLTYAMGWYRQAPGKERELVAAISGRGGSTYYADSVNGRFTISRDYAKNTVYLQMNSLKPEDTAVYYCAAAKWVIQTGNYYYWGQGTQVTVSS | low polyreactivity
HVLLVESGGGLVQAGGSLRLSFAATAFTFTYYTMGSYRQAPGKETELVAAITSSGGSTYYADSVMGRFTISRDNANNTVYLQMNSLKPEDTAVYYCAASRYSTRFGARVYWGQVTQVTVSS | high polyreactivity
QVQLVESGGGLVQAGGSLRLSCAASGFTFSSNAMGWYRQAPGKERELVAVIDSGDITNYADSVKGRFTISRDYAKNTVYLQMNSLKPEDTAVYYCAADSYSYFTDDHGYWGQGTQVTVSS | high polyreactivity
QVQLVESGGGLVQAGGSLRLSCAASGRTFYRYAMGWYRQAPGKERELVARIRSGGSTNYADSVKGRFTISRDNAKNTVYLQMNSLKPEDTAVYYCAARPGAAGYKYYYWGQGTQVTVSS | high polyreactivity
QVQLQESGGGLVQAGGSLRLSCAASGSNFKVVEMGLYRQAPAKDREFVATIGEGGNTYYADSVKGRFTISRDNAKNTVYLQMNSLKPEDTAVYFYAVVLGTSYRYTYWGQGTQVTVSS | low polyreactivity
QVQLVESGGGLVQAGGSLRLSCAASGITFDSYALGSYRQAPGKERELVAAISGSGGSTYYADSVKGRFTISRDNAKNTVYLQMNSLKPEDTAVYYCAADWYPTGFYYWGQGTQVTVSS | low polyreactivity
QVQLVESGGGLVQAVCSLRLSCAASGRTFHGNAMGWYRQAPGKERELVAAISYSGGRTYYADSVKGRFTISRDNAKNTVYLQMNSLKPEDTAVYYCAAWGSSYSFDYWGQGTQVTVSS | high polyreactivity
QVQLVESGGGLVQAGGSLRLSCAASGFILRTNAMGWYRQAPGKERELVAAISVSGGRTYYADSVKGRFTISRDNAKNTVYLQMNSLKPEDTAVYYCAARDSTKLLSGYTHYYWGQGTQVTVSS | high polyreactivity
QVQLQESGCGLVQAGGCLSCTASGTIFGQGDMGWYRQAPGKERELVATINDGASTYYADSVKGRFTISRDKAKNTVYLQMNSLKPEDTAVYYCAAVIRPRYYQVRPRYDYWGQGTQVTVSS | low polyreactivity

Sequence | polyreactivity (PSR sort gate)
QVQLVESGGGLVQAGGSLRLSCAASGSIFNYYAMGWYRQAPGKESELVAGITTSGGSTYYADSVKGRFTISRDNAKNTVYLQMNSLKPEDTAVYYCAAYDYISSTYFLYDYWGQGTQVTVSS | low polyreactivity
QVQLVESGGGLVQAGGSLRLSCAASGFTFESYTMGWYRQAPGKESELVAAINSGTSTYYADSVKGRFTISRDNAKNTVYLQMNSLKPEDTAVYYCNARRYRRYRKYDYWGQGTQVTVSS | high polyreactivity
QVQLVESGGGLVQAGGSLRLSCAASGRIFYFNAMGWNRQAPGKERELVADISSGGRTNYADSVKGRFTISRDNAKNTVYLQMNSLKPEDTAVYYCNADPYTSSGGYRGYDFDYWGQGTQVTVSS | low polyreactivity
QVQLVESGGGLVQAGGSLRLSCAASGRTFWTNAMGWYRQAPGKERELVAAITKSGGRTYYADSVKGRFTISRDNAKNTVYLQMNRLKPEDTAVYYCAAYSQGEGGYWGQGTQVTVSS | high polyreactivity
QVQLVESGGGLVQAGGSLRLSCAASGSIFPVYAMGWYRQAPGKERELVAAISSRGGTTYYADSVKGRFTISRDNAKNTVYLQMNSLKPEDTAVYYCAATRSGKYYGTRRKYGYWGQGTQVTVSS | high polyreactivity
QVQLVESVGGLVQAGGSLRLSCAASGRIFTSYAMGWYRQAPGKERELVAAIRFNGDSTYYADSVKGSFTISRDNAKNTVYLQMNSLKPEDTAVYYCAASRYRGSFRYTEYYWGQGTQVTVSS | high polyreactivity
QVHLVESGGGLVQAGGSLRLSCAASGIPLYFYAMGWYRQAPGKERELVAAISRGGRTYYADSVKGRFTISRDNAKYTVYLQMNSLKPEDTAVYYCAARYTSEYSAFDYWGQGTQVTVSS | low polyreactivity
QVQLVESGGGLVQAGGSLRLSCAASGSTFNGYAMGWYRQAPGKERELVAAITSSGSRTYYADSVKGRFTISRDNAKNTVYLQMNSLKPVDTAVYYCNAGKLARTYFRSSSVSPGDYWGQGTQVTVSS | high polyreactivity
QVQLVESGGGLVQAGGSLRLSCAASGSTFEANAMGWYRQAPGKERELVAVITWTGGSTYYADSVKGRFTISRDNAKNTVYLQMNSLKPEDTAVYYCAADGVVPCRFFWPAHEYDYWGQGTQVTVSS | low polyreactivity
QVQLVESGGGLVQAGGSLRLSCAASGSTSGSYGMGWYRQAPGKERELVAAIRWSGGRTYYADSVKGRFTISRDNAKNTVYLQMNSLKPEDTAVYYCAKYRYTVAGYNYWGQGTQVTVSS | high polyreactivity
QVQLVESGGGLVQAGGSLRLSCAASGFTFLYYDMGWYRQAPGKERELVAAITSSGTSTYYADSVKGRFTISRDNAKNSVYLQMNSLKPEDTAVYYCAVMYTYAGRHRYGYWGQGTQVTVSS | high polyreactivity
QVQLVESGGCLVQAGGSLRLSCAASGRIFLPYAMVWYRQAPGKERELVASITRRGGTTYYADSVKGRFTISRDNAKNTVYLQMNSLKPADSAVYYCAKESWPYGTRGYYHYEYWGQGTQVTVSS | high polyreactivity
QDQLVESGGCLVQAGGSLRLSCAASGSIFKRNAMGWYRQAPGKERELVASISWSGTRTYYADSVKGRFTISRDNAKNTVYLQMNSLKPEDTAVYYCARRIYGGHPSQSTQGDFYYWGHGTQVTVSS | high polyreactivity
QVQLVESGGGLVQAGGSLRLSCAASGSIFKKYAMGWYRQAPGKERELVAAISKSGGSTYYADSVKGRFTISRDNAKNTVYLQMNSLKPEDTAVYYCAAAAGGSAYWDYDYWGQGTQVTVSS | low polyreactivity
QVQLVESGGGLVQAGGSLRLSCAASGITFWSYAMGWYRQAPGKERELVAAISRGGDSTYYADSVKGRFTISRDNAKNTVYLQMNSLKPEDTAVYYCAALRKREEYYWGQGTQVTVSS | high polyreactivity
